Experimental data reported in patent US20220175946A1 (MAGENTA THERAPEUTICS, published 2022).
Residue numbers refer to the chain shown, from its start.

Target: Human CD117 as expressed on cells (Kasumi-1 cells; primary human CD34+ bone marrow cells) (human, UniProt P10721 26-976)
Assay: cell-based or functional assay

Chain of Human CD117 as expressed on cells (Kasumi-1 cells; primary human CD34+ bone marrow cells) (P10721 26-976 limits assumed): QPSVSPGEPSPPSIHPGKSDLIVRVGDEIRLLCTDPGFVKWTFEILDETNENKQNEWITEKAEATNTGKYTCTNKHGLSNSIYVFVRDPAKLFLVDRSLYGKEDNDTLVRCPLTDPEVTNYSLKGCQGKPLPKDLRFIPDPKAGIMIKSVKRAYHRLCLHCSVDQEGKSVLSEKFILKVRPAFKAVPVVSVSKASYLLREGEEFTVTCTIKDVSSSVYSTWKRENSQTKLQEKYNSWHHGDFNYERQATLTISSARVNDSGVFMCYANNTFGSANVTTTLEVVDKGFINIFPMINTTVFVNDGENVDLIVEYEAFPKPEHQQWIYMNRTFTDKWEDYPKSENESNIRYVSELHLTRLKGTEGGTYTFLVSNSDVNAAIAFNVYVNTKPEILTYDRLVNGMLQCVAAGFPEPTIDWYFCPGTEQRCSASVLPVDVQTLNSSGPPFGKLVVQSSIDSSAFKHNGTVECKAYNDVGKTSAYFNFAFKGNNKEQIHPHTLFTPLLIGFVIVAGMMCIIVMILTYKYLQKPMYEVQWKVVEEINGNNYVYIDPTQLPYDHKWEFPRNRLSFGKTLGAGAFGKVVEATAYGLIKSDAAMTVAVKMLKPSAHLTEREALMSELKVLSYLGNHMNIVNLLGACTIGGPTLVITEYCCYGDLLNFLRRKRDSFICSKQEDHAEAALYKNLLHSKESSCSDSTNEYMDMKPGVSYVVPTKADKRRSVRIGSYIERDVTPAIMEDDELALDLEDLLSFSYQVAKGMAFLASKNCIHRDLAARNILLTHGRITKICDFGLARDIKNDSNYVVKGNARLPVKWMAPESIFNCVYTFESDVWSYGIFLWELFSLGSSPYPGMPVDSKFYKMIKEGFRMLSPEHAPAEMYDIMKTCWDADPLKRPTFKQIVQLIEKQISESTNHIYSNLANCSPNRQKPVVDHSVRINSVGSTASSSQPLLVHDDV

B1: CK6 (antibody, V domains shown)
VH: QVQLVQSGAAVKKPGESLKISCKGSGYRFTSYWIGWVRQMPGKGLEWMGIIYPGDSDTRYSPSFQGQVTISAGKSISTAYLQWSSLKASDTAMYYCARHGRGYNGYEGAFDIWGQGTMVTVSS
VL: AIQLTQSPSSLSASVGDRVTITCRASQGISSALAWYQQKPGKAPKLLIYDASSLESGVPSRFSGSGSGTDFTLTISSLQPEDFATYYCQQFNSYPLTFGGGTKVEIK
With B1 as the binder, how does the “AUC Kasumi-1 Killing (AUC hIgG1 - AUC MAC ID#)” value (“AUC Kasumi-1 Killing” below) read?
The value was 132000.

B2: Antibody 56 (Ab56) (antibody, V domains shown)
VH: QVQLVQSGAEVKKPGSSVKVSCKASGGTFSLYAISWVRQAPGQGLEWMGGIIPAFGTANYAQKFQGRVTITADESTSTAYMELSSLRSEDTAVYYCARGGLDTDEFDLWGRGTLVTVSS
VL: DIQMTQSPSSLSASVGDRVTITCRASQSINSYLNWYQQKPGKAPKLLIYAASSLQSGVPSRFSGSGSGTDFTLTISSLQPEDFATYYCQQGVSDITFGGGTKVEIKR
B2 was tested. Which “AUC Kasumi-1 Killing” value did it give?
Its value is 193000.

B3: Antibody 55 (Ab55) (antibody, V domains shown)
VH: B2 VH with S30R, L31I, A54D, T57V
VL: B2 VL
B3 was tested. Which “AUC Kasumi-1 Killing” value did it give?
Its value is 226000.

B4: Antibody 54 (Ab54) (antibody, V domains shown)
VH: B2 VH with L31S, A54I
VL: B2 VL
Which “AUC Kasumi-1 Killing” value does the source give for B4 here?
The value was 155000.

B5: Antibody 57 (Ab57) (antibody, V domains shown)
VH: B2 VH with A54H, T57L
VL: B2 VL
Which “AUC Kasumi-1 Killing” value does the source give for B5 here?
The value was 157000.

B6: Antibody 67 (Ab67) (antibody, V domains shown)
VH: EVQLVESGGGLVQPGGSLRLSCAASGFTFSDADMDWVRQAPGKGLEWVGRTRNKAGSYTTEYAASVKGRFTISRDDSKNSLYLQMNSLKTEDTAVYYCAREPKYWIDFDLWGRGTLVTVSS
VL: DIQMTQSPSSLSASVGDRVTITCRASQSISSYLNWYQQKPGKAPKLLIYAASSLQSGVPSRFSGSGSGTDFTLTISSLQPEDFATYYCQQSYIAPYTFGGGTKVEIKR
Which “AUC Kasumi-1 Killing” value does the source give for B6 here?
The value was 156000.

B7: Antibody 66 (Ab66) (antibody, V domains shown)
VH: B6 VH with A32H, D33Y, G56S
VL: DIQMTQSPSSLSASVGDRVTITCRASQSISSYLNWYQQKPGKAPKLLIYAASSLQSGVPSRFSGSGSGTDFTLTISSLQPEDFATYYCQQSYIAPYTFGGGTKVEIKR
B7 was tested. Which “AUC Kasumi-1 Killing” value did it give?
Its value is 135000.

B8: Antibody 69 (Ab69) (antibody, V domains shown)
VH: B6 VH with S30V, A32H, A55L
VL: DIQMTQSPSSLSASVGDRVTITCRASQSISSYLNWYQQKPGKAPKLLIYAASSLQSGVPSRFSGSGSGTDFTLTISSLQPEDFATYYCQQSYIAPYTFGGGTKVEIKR
How did the “AUC Kasumi-1 Killing” value turn out when B8 was run?
Its value is 40000.

B9: Antibody 68 (Ab68) (antibody, V domains shown)
VH: B6 VH with G16R, A23T, A32H, D35N, K54A
VL: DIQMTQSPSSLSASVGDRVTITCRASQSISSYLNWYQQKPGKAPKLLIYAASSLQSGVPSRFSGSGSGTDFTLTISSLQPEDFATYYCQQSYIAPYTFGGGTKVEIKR
How did the “AUC Kasumi-1 Killing” value turn out when B9 was run?
The value was 14400.

B10: Antibody 58 (Ab58) (antibody, V domains shown)
VH: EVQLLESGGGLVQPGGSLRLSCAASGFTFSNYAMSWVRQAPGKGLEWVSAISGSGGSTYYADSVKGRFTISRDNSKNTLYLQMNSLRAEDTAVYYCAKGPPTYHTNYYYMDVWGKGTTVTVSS
VL: DIQMTQSPSSVSASVGDRVTITCRASQGISSWLAWYQQKPGKAPKLLIYAASSLQSGVPSRFSGSGSGTDFTLTISSLQPEDFATYYCQQTNSFPYTFGGGTKVEIKR
B10 was tested. Which “AUC Kasumi-1 Killing” value did it give?
The value was 97400.

B11: Antibody 61 (Ab61) (antibody, V domains shown)
VH: EVQLLESGGGLVQPGGSLRLSCAASGFTFSSYVMIWVRQAPGKGLEWVSSISGDSVTTYYADSVKGRFTISRDNSKNTLYLQMNSLRAEDTAVYYCAKGPPTYHTNYYYMDVWGKGTTVTVSS
VL: B10 VL
With B11 as the binder, how does the “AUC Kasumi-1 Killing” value read?
The value was 78600.
